1 molecule from article PMC2174006 (The Journal of Cell Biology, 2002) can be followed below.

No end group written: not given here.

The target of the assay is recombinant murine [32P]RIIα (murine, UniProt P12367 1-401, 32P-labelled). Kind of assay: peptide or protein array.
Chain of recombinant murine [32P]RIIα (P12367 whole entry): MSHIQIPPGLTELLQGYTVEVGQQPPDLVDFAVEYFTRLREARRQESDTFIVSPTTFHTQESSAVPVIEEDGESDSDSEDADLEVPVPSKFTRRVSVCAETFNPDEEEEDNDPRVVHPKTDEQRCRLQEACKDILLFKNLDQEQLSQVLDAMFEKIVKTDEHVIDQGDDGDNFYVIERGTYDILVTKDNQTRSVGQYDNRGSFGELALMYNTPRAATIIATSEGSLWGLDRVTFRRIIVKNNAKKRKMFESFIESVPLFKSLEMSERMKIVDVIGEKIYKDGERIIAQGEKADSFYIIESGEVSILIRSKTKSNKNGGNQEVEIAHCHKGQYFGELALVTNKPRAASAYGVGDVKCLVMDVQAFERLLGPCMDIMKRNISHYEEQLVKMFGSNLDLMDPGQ

B1: Rab32 peptide 178–197 (peptide)
peptide: Ac-NINIEEAARFLVEKILVNHQ
Regarding B1, the binding result is recorded as “binds”.
